Positions count from the first letter of the chain named. Numbers in names are those of the source.
What was measured:
[1] = biological target: purified human H3 recombinant protein (NEB), P20929
[2] = biological target: T1, biotinylated H4-derived unphosphorylated peptide TVTAMDVVYALKRQGRT
T1 chain: TVTAMDVVYALKRQGRT

[3] = biological target: purified human H4 recombinant protein (NEB), P62805

B1: purified Ack1 (protein)
chain: MQPEEGTGWLLELLSEVQLQQYFLRLRDDLNVTRLSHFEYVKNEDLEKIGMGRPGQRRLWEAVKRRKALCKRKSWMSKVFSGKRLEAEFPPHHSQSTFRKTSPAPGGPAGEGPLQSLTCLIGEKDLRLLEKLGDGSFGVVRRGEWDAPSGKTVSVAVKCLKPDVLSQPEAMDDFIREVNAMHSLDHRNLIRLYGVVLTPPMKMVTELAPLGSLLDRLRKHQGHFLLGTLSRYAVQVAEGMGYLESKRFIHRDLAARNLLLATRDLVKIGDFGLMRALPQNDDHYVMQEHRKVPFAWCAPESLKTRTFSHASDTWMFGVTLWEMFTYGQEPWIGLNGSQILHKIDKEGERLPRPEDCPQDIYNVMVQCWAHKPEDRPTFVALRDFLLEAQPTDMRALQDFEEPDKLHIQMNDVITVIEGRAENYWWRGQNTRTLCVGPFPRNVVTSVAGLSAQDISQPLQNSFIHTGHGDSDPRHCWGFPDRIDELYLGNPMDPPDLLSVELSTSRPPQHLGGVKKPTYDPVSEDQDPLSSDFKRLGLRKPGLPRGLWLAKPSARVPGTKASRGSGAEVTLIDFGEEPVVPALRPCAPSLAQLAMDACSLLDETPPQSPTRALPRPLHPTPVVDWDARPLPPPPAYDDVAQDEDDFEICSINSTLVGAGVPAGPSQGQTNYAFVPEQARPPPPLEDNLFLPPQGGGKPPSSAQTAEIFQALQQECMRQLQAPAGSPAPSPSPGGDDKPQVPPRVPIPPRPTRPHVQLSPAPPGEEETSQWPGPASPPRVPPREPLSPQGSRTPSPLVPPGSSPLPPRLSSSPGKTMPTTQSFASDPKYATPQVIQAPGPRAGPCILPIVRDGKKVSSTHYYLLPERPSYLERYQRFLREAQSPEEPTPLPVPLLLPPPSTPAPAAPTATVRPMPQAALDPKANFSTNNSNPGARPPPPRATARLPQRGCPGDGPEAGRPADKIQMAMVHGVTTEECQAALQCHGWSVQRAAQYLKVEQLFGLGLRPRGECHKVLEMFDWNLEQAGCHLLGSWGPAHHKR
[1]
  in vitro kinase reaction, immunoblot with pTyr99-H3 antibody: Ack1 directly phosphorylates histone H3 at Tyr99
[2]
  in vitro kinase assay on plate-bound peptide, ELISA with pY88-H4 antibodies: Incubation of H4 peptide with WEE1 and Ack1 protein resulted in robust H4 Tyr88-phosphorylation

B2: purified constitutively active E346K-Ack1 (protein)
chain: B1 chain with E346K
[3]
  in vitro kinase assay, immunoblot with pTyr51-H4 antibody: When purified E346K-Ack1 and H4 were incubated, H4 was Tyr51-phosphorylated

Reference: US20150011567
